Data published in article PMC10420310, “The Complex Proteolipidic Behavior of the SARS-CoV-2 Envelope Protein Channel: Weak Selectivity and Heterogeneous Oligomerization” (International Journal of Molecular Sciences, 2023).

Biological target: the molecule itself
Assay: AUC; sedimentation velocity, E-TM at DPR 25 (lowest DPR tested) in 5 mM C14SB micelles, 50 mM Tris-HCl pH 7.3, 100 mM NaCl, 29.4% D2O, 20 °C, 50,000 rpm

B1: transmembrane domain of SARS-2 E corresponding to residues 7–38 (E-TM) (peptide)
chain: EETGTLIVNSVLLFLAFVVFLLVTLAILTALR
notes: SARS-CoV-2 envelope (E) protein, transmembrane domain, residues 7-38; monomer 3490 Da; also called E-TM 7–38
**Q.** Which “stoichiometry N” value does the source give for B1 here?
**A.** Its value is roughly 3.3.
